Substrate in series [1]: COc1cc(CO)ccc1O
As to the kind of experiment: purified protein. Format: biochemical, Penicillium simplicissimum. The following applies: 50 mM potassium phosphate, pH 7.5, 25 °C, O2 as electron acceptor.

Substrate in series [2]: COc1cc(CO)ccc1O
The experiment in a line: purified protein. To be noted: 50 mM potassium phosphate, pH 7.5, 25 °C, O2 as electron acceptor. Format: biochemical, Rhodococcus jostii.

B1: His-VAO (vanillyl alcohol oxidase) (Penicillium simplicissimum) (protein)
chain: MSKTQEFRPLTLPPKLSLSDFNEFIQDIIRIVGSENVEVISSKDQIVDGSYMKPTHTHDPHHVMDQDYFLASAIVAPRNVADVQSIVGLANKFSFPLWPISIGRNSGYGGAAPRVSGSVVLDMGKNMNRVLEVNVEGAYCVVEPGVTYHDLHNYLEANNLRDKLWLDVPDLGGGSVLGNAVERGVGYTPYGDHWMMHSGMEVVLANGELLRTGMGALPDPKRPETMGLKPEDQPWSKIAHLFPYGFGPYIDGLFSQSNMGIVTKIGIWLMPNPRGYQSYLITLPKDGDLKQAVDIIRPLRLGMALQNVPTIRHILLDAAVLGDKRSYSSRTEPLSDEELDKIAKQLNLGRWNFYGALYGPEPIRRVLWETIKDAFSAIPGVKFYFPEDTPENSVLRVRDKTMQGIPTYDELKWIDWLPNGAHLFFSPIAKVSGEDAMMQYAVTKKRCQEAGLDFIGTFTVGMREMHHIVCIVFNKKDLIQKRKVQWLMRTLIDDCAANGWGEYRTHLAFMDQIMETYNWNNSSFLRFNEVLKNAVDPNGIIAPGKSGVWPSQYSHVTWKL
notes: N-terminal 6xHis tag plus single Gly, tag kept; codon-optimised, E. coli BL21; covalent FAD; VAO predominantly octameric
For B1, in the series “purified protein [1]”, the Michaelis constant (Km) (commonly the substrate concentration at which the rate is half of its maximum) amounted to 129 ± 15 µM; the kcat (usually the number of substrate molecules converted per active site and unit of time at saturation) is 2.5 ± 0.1 s⁻¹; the specificity constant (kcat/Km) – broadly, the turnover number divided by the Michaelis constant – was 19000 M⁻¹ s⁻¹.

B2: EUGO-His (eugenol oxidase) (Rhodococcus jostii RHA1) (protein)
chain: MTRTLPPGVSDERFDAALQRFRDVVGDKWVLSTADELEAFRDPYPVGAAEANLPSAVVSPESTEQVQDIVRIANEYGIPLSPVSTGKNNGYGGAAPRLSGSVIVKTGERMNRILEVNEKYGYALLEPGVTYFDLYEYLQSHDSGLMLDCPDLGWGSVVGNTLDRGVGYTPYGDHFMWQTGLEVVLPQGEVMRTGMGALPGSDAWQLFPYGFGPFPDGMFTQSNLGIVTKMGIALMQRPPASQSFLITFDKEEDLEQIVDIMLPLRINMAPLQNVPVLRNIFMDAAAVSKRTEWFDGDGPMPAEAIERMKKDLDLGFWNFYGTLYGPPPLIEMYYGMIKEAFGKIPGARFFTHEERDDRGGHVLQDRHKINNGIPSLDELQLLDWVPNGGHIGFSPVSAPDGREAMKQFEMVRNRANEYNKDYAAQFIIGLREMHHVCLFIYDTAIPEAREEILQMTKVLVREAAEAGYGEYRTHNALMDDVMATFNWGDGALLKFHEKIKDALDPNGIIAPGKSGIWSQRFRGQNL
notes: E. coli TOP10; covalent FAD; EUGO dimeric
For the protein B2, in the series “purified protein [2]”, the Km is 47 ± 5 µM, the kcat was determined as 8 ± 0.2 s⁻¹ and the kcat/Km was determined as 170000 M⁻¹ s⁻¹.
